Reference: patent publication US20220380409A1

Biological target: PfLDH protein (UniProt Q27743)
Assay: -

Q: With primary ligand hevwh as the substance, how does the Kd read?
A: 5 µM
